± gives the uncertainty stated by the source.

We go through 41 variants from the Human Domainome abundance scans (Beltran et al. 2025).

The labels stand for the following.
B1: PMS1 protein homolog 1, residues 572 to 637; numbered along this chain, P54277 (parent)
chain: KKPMSASALFVQDHRPQFLIENPKTSLEDATLQIEELWKTLSEEEKLKYEEKATKDLERYNSQMKR

In the series the parent is B1. The series is described as follows: abundance fitness (aPCA) (normalised: wild type 0, dead -1); higher = more abundant; growth selection in yeast, the domain comes from the species named. As to conditions: Homo sapiens.
As to RKPMSASALFVQDHRPQFLIENPKTSLEDATLQIEELWKTLSEEEKLKYEEKATKDLERYNSQMKR, the abundance fitness was -0.216 ± 0.13. For KIPMSASALFVQDHRPQFLIENPKTSLEDATLQIEELWKTLSEEEKLKYEEKATKDLERYNSQMKR, the abundance fitness is -0.475 ± 0.42. Turning to KRPMSASALFVQDHRPQFLIENPKTSLEDATLQIEELWKTLSEEEKLKYEEKATKDLERYNSQMKR, the abundance fitness is -0.332 ± 0.11. For the variant KMPMSASALFVQDHRPQFLIENPKTSLEDATLQIEELWKTLSEEEKLKYEEKATKDLERYNSQMKR, the abundance fitness was -0.321 ± 0.16. For the variant KSPMSASALFVQDHRPQFLIENPKTSLEDATLQIEELWKTLSEEEKLKYEEKATKDLERYNSQMKR, the abundance fitness was -0.201 ± 0.098. Next, KHPMSASALFVQDHRPQFLIENPKTSLEDATLQIEELWKTLSEEEKLKYEEKATKDLERYNSQMKR: 0.115 ± 0.46; KCPMSASALFVQDHRPQFLIENPKTSLEDATLQIEELWKTLSEEEKLKYEEKATKDLERYNSQMKR: -0.095 ± 0.16.

As to KQPMSASALFVQDHRPQFLIENPKTSLEDATLQIEELWKTLSEEEKLKYEEKATKDLERYNSQMKR, the abundance fitness was -0.545 ± 0.15. For KEPMSASALFVQDHRPQFLIENPKTSLEDATLQIEELWKTLSEEEKLKYEEKATKDLERYNSQMKR, the abundance fitness is -0.433 ± 0.11.

In the case of KGPMSASALFVQDHRPQFLIENPKTSLEDATLQIEELWKTLSEEEKLKYEEKATKDLERYNSQMKR, the abundance fitness is -0.696 ± 0.25. Next, KPPMSASALFVQDHRPQFLIENPKTSLEDATLQIEELWKTLSEEEKLKYEEKATKDLERYNSQMKR: -0.201 ± 0.23; KLPMSASALFVQDHRPQFLIENPKTSLEDATLQIEELWKTLSEEEKLKYEEKATKDLERYNSQMKR: -0.08 ± 0.39; KFPMSASALFVQDHRPQFLIENPKTSLEDATLQIEELWKTLSEEEKLKYEEKATKDLERYNSQMKR: -0.242 ± 0.41.

Consider KKPFSASALFVQDHRPQFLIENPKTSLEDATLQIEELWKTLSEEEKLKYEEKATKDLERYNSQMKR, for which the abundance fitness was -0.12 ± 0.18. Regarding KKPYSASALFVQDHRPQFLIENPKTSLEDATLQIEELWKTLSEEEKLKYEEKATKDLERYNSQMKR, the abundance fitness is -0.091 ± 0.15. As for KKPVSASALFVQDHRPQFLIENPKTSLEDATLQIEELWKTLSEEEKLKYEEKATKDLERYNSQMKR, the abundance fitness was -0.091 ± 0.065.

Turning to KKPQSASALFVQDHRPQFLIENPKTSLEDATLQIEELWKTLSEEEKLKYEEKATKDLERYNSQMKR, the abundance fitness amounted to 0.043 ± 0.12. Take KKPASASALFVQDHRPQFLIENPKTSLEDATLQIEELWKTLSEEEKLKYEEKATKDLERYNSQMKR: the abundance fitness was -0.072 ± 0.072. For the variant KKPRSASALFVQDHRPQFLIENPKTSLEDATLQIEELWKTLSEEEKLKYEEKATKDLERYNSQMKR, the abundance fitness is -0.106 ± 0.077.

Consider KKPWSASALFVQDHRPQFLIENPKTSLEDATLQIEELWKTLSEEEKLKYEEKATKDLERYNSQMKR, for which the abundance fitness was -0.485 ± 0.11.

Regarding KKPLSASALFVQDHRPQFLIENPKTSLEDATLQIEELWKTLSEEEKLKYEEKATKDLERYNSQMKR, the abundance fitness is -0.017 ± 0.096. For KKPPSASALFVQDHRPQFLIENPKTSLEDATLQIEELWKTLSEEEKLKYEEKATKDLERYNSQMKR, the abundance fitness was -0.064 ± 0.18. As to KKPNSASALFVQDHRPQFLIENPKTSLEDATLQIEELWKTLSEEEKLKYEEKATKDLERYNSQMKR, the abundance fitness is -0.157 ± 0.47.

On to KKPTSASALFVQDHRPQFLIENPKTSLEDATLQIEELWKTLSEEEKLKYEEKATKDLERYNSQMKR, for which the abundance fitness is -0.05 ± 0.096. Regarding KKPESASALFVQDHRPQFLIENPKTSLEDATLQIEELWKTLSEEEKLKYEEKATKDLERYNSQMKR, the abundance fitness is -0.002 ± 0.11.

For KKPHSASALFVQDHRPQFLIENPKTSLEDATLQIEELWKTLSEEEKLKYEEKATKDLERYNSQMKR, the abundance fitness is -0.044 ± 0.14. The value for KKPCSASALFVQDHRPQFLIENPKTSLEDATLQIEELWKTLSEEEKLKYEEKATKDLERYNSQMKR was -0.627 ± 0.18; that for KKPKSASALFVQDHRPQFLIENPKTSLEDATLQIEELWKTLSEEEKLKYEEKATKDLERYNSQMKR was 0.057 ± 0.14; that for KKPMDASALFVQDHRPQFLIENPKTSLEDATLQIEELWKTLSEEEKLKYEEKATKDLERYNSQMKR was -0.341 ± 0.34.

On to KKPMLASALFVQDHRPQFLIENPKTSLEDATLQIEELWKTLSEEEKLKYEEKATKDLERYNSQMKR, for which the abundance fitness is -0.283 ± 0.12. For the variant KKPMEASALFVQDHRPQFLIENPKTSLEDATLQIEELWKTLSEEEKLKYEEKATKDLERYNSQMKR, the abundance fitness is -0.031 ± 0.13. The value for KKPMMASALFVQDHRPQFLIENPKTSLEDATLQIEELWKTLSEEEKLKYEEKATKDLERYNSQMKR was -0.411 ± 0.13. For KKPMWASALFVQDHRPQFLIENPKTSLEDATLQIEELWKTLSEEEKLKYEEKATKDLERYNSQMKR, the abundance fitness was -0.874 ± 0.2.

Regarding KKPMCASALFVQDHRPQFLIENPKTSLEDATLQIEELWKTLSEEEKLKYEEKATKDLERYNSQMKR, the abundance fitness is -0.333 ± 0.44. As for KKPMAASALFVQDHRPQFLIENPKTSLEDATLQIEELWKTLSEEEKLKYEEKATKDLERYNSQMKR, the abundance fitness is -0.252 ± 0.13.

KKPMTASALFVQDHRPQFLIENPKTSLEDATLQIEELWKTLSEEEKLKYEEKATKDLERYNSQMKR: the abundance fitness amounted to 0.095 ± 0.077. Regarding KKPMRASALFVQDHRPQFLIENPKTSLEDATLQIEELWKTLSEEEKLKYEEKATKDLERYNSQMKR, the abundance fitness was -0.293 ± 0.1.

Take KKPMPASALFVQDHRPQFLIENPKTSLEDATLQIEELWKTLSEEEKLKYEEKATKDLERYNSQMKR: the abundance fitness is 0.322 ± 0.3. Consider KKPMGASALFVQDHRPQFLIENPKTSLEDATLQIEELWKTLSEEEKLKYEEKATKDLERYNSQMKR, for which the abundance fitness is -0.032 ± 0.087.

Regarding KKPMKASALFVQDHRPQFLIENPKTSLEDATLQIEELWKTLSEEEKLKYEEKATKDLERYNSQMKR, the abundance fitness was -0.179 ± 0.12.

With KKPMIASALFVQDHRPQFLIENPKTSLEDATLQIEELWKTLSEEEKLKYEEKATKDLERYNSQMKR, the abundance fitness is -0.336 ± 0.28.
